Experiments:
[1] = biological target: recombinant wild-type rabbit SERCA1a (sarco-endoplasmic reticulum Ca2+-ATPase, isoform 1a) expressed in S. cerevisiae (rabbit) (UniProt P04191)
[2] = biological target: native SERCA1a in DDM-solubilized rabbit sarco-endoplasmic reticulum membranes (rabbit) (UniProt P04191)
[3] = biological target: recombinant wild-type rabbit SERCA1a (sarco-endoplasmic reticulum Ca2+-ATPase, isoform 1a) expressed in S. cerevisiae (rabbit) (UniProt P04191); remark: listed apart in the source
[4] = biological target: native SERCA1a in DDM-solubilized rabbit sarco-endoplasmic reticulum membranes (rabbit) (UniProt P04191); remark: listed apart in the source

recombinant wild-type rabbit SERCA1a (sarco-endoplasmic reticulum Ca2+-ATPase, isoform 1a) expressed in S. cerevisiae (rabbit), sequence (P04191 other isoform, or with tags, fused parts or gaps): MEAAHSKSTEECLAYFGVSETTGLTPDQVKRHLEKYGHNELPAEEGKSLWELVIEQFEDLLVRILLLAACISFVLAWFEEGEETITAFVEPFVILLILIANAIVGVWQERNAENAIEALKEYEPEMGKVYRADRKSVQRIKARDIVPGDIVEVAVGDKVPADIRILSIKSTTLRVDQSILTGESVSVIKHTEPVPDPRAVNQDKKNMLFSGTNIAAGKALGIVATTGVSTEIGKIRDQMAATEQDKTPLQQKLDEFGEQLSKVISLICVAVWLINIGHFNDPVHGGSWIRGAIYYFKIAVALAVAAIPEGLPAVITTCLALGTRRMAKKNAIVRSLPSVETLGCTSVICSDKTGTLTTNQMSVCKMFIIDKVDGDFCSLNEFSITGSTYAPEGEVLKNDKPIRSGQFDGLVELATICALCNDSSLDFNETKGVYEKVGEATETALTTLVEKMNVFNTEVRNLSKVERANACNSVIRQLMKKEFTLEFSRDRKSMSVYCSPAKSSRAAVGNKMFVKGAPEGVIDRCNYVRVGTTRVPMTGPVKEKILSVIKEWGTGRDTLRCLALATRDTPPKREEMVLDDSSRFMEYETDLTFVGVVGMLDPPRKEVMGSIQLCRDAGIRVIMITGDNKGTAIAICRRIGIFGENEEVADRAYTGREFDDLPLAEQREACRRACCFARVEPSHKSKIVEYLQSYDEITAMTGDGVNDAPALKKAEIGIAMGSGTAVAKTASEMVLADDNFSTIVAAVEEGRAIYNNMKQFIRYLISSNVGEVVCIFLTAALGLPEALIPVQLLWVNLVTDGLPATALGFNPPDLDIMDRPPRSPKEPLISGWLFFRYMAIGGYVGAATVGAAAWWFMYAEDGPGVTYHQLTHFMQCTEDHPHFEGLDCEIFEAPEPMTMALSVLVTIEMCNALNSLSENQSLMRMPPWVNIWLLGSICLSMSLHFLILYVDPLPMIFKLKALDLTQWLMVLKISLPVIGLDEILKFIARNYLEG
native SERCA1a in DDM-solubilized rabbit sarco-endoplasmic reticulum membranes (rabbit), sequence (P04191 other isoform, or with tags, fused parts or gaps): as above

Row | IC50 of inhibition of the phosphoenzyme level, as told in the discussion (mol of added SLN/mole of SERCA1a) [1] | IC50 of inhibition of the phosphoenzyme level, as told in the discussion (mol added SLN/mole of SERCA1a) [2] | SLN:SERCA1a ratio at half-inhibition of the phosphoenzyme level (ratios 1:1 to 1:50) (mol SLN added per mole of SERCA1a) [3] | amplitude of the inhibition of the phosphoenzyme level (dose-response fit) [3] [%] | t1/2 of phosphorylation from [γ32P]ATP starting from a calcium-deprived state, Sarcolipin:SERCA1a 10:1 (6.8 without SLN) [3] [s] | SLN:SERCA1a ratio at half-inhibition of the phosphoenzyme level (ratios 1:1 to 1:50) (mol SLN added per mole of SERCA1a) [4] | amplitude of the inhibition of the phosphoenzyme level (dose-response fit) [4] [%] | Substance
1 | 5 | 5.6 | 5.1 | 31.2 | 13.5 | 5.9 | 28.1 | chemically synthesized S-palmitoylated rabbit sarcolipin (peptide)
2 | 4.5 | 2.9 | 4.7 | 28.6 | 13.7 | 3.1 | 19 | chemically synthesized non-palmitoylated rabbit sarcolipin (peptide)
